Values quoted from earlier work as cited in publication PMC4850115.

Biological target: p38 (Homo sapiens) (UniProt Q16539)
Chain of UniProt Q16539 (Q16539 2-360): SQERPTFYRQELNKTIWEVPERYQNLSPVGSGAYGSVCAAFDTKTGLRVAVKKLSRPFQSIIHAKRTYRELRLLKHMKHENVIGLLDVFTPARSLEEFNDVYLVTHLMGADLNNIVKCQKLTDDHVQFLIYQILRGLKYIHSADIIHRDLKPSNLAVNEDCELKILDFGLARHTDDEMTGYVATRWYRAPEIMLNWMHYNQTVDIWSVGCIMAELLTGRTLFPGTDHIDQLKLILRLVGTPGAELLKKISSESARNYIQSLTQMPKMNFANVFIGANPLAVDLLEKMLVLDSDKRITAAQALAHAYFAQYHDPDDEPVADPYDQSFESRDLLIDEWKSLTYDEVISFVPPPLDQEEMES

In the case of MK2 370-400 (from UniProt P49137), the Kd is listed as 20 nM.
